In patent US8697369B2, “Method for screening a test substance for activating a receptor associated with FGF 21 activity” (National Institute of Advanced Industrial Science and …, priority 2007, dated 2014):

Assays:
Type in all cases: cell-based
[1] = target: T1, humanized FGFR1c/humanized betaKlotho (hβKlotho)-expressing cells (Homo sapiens, UniProt P11362+Q86Z14); test: DNA synthesis in humanized FGFR1c/humanized betaKlotho-expressing BaF3 cells; conditions: humanized FGFR1c and humanized betaKlotho; 10 μg/ml heparin
T1 construct: expressed in transfected cells; host or cells: BaF3 (mouse pro-B) cells; pSRalpha (FGFR1c), pcDNA3.1 (betaKlotho)
Description: In Examples 4, 5, 6, and 7, it was shown that FGF21 reacts with FGFR1c in the presence of betaKlotho. FGFR1c, betaKlotho, FGF21, and the like, which were used in an actual experimental system, were all derived from mice used as typical mammalian models. With regard to these molecules, the homology between a human and a mouse at the amino acid sequence level is extremely high (80% in FGF21, 78% in betaKlotho, and 98% in FGFR1). As a result, naturally, there are no problems regarding the compatibility of the human with the mouse, and thus it is clear that the same results as those from a murine molecule will be obtained even using a humanized molecule. In the present example, as a precautionary measure, an experimental system using a humanized molecule was constructed to confirm such respect, and an experiment was carried out. Specifically, the humanized cDNA of FGFR1c and that of betaKlotho were prepared from a commercially available human RNA sample (Takara Bio Inc.) by PCR. FGFR1c was introduced into an expression vector having an SRalpha promoter (pSRalpha), and betaKlotho was introduced into an expression vector having a CMV promoter (pcDNA3.1; Invitrogen). […] In the presence of heparin, humanized FGF21 was added in various types of concentrations to FGFR1c-expressing cells or FGFR1c/betaKlotho-co-expressing cells, and the amount of DNA synthesized was then measured.

[2] = target: T2, humanized FGFR3c (hR3c)-expressing BaF3 cells (Homo sapiens, UniProt P22607, A441S/A461E/A470D/A499P/A500N/A559S/A717S/A734V/A765M/C582S/D512S/D516E/D576E/D580N/D722E/D758Q/D785E/DEL405-414/E426D/E447G/E729D/E768D/F566Y/F579Y/F591S/F767L/G446S/G448T/G548D/G773S/G774F/H721N/I440P/I494L/I698V/I726M/INS417HSQMAVHKLAKSI/INS423TV/INS780T/K420R/K464R/K501R/K583H/L398M/L425A/L457Y/L554I/L645I/L752V/M488L/N428S/N434G/N453G/N644H/P401G/P402T/P436L/P502V/P584N/P778R/Q611K/Q775P/R397K/R399K/R416D/R498K/R568Q/S432N/S468P/S578C/S781C/T435V/T450M/T473V/T504K/T581P/T590S/T753A/T757N/V503T/V523I/V642I/V670I/V751I/V754L); test: DNA synthesis in humanized FGFR3c-expressing BaF3 cells; conditions: humanized FGFR3c only; 10 μg/ml heparin
T2 construct: expressed in transfected cells; host or cells: BaF3 (mouse pro-B) cells; pSRalpha vector
Procedure: (§1) The homology between human FGFR3 and mouse FGFR3 at the amino acid sequence level is 93%. […] The cDNA of humanized FGFR3c was prepared from a commercially available human RNA sample (Takara Bio Inc.) by PCR. The sequence of its intracellular portion was substituted with the sequence of humanized FGFR1, and it was then introduced into an expression vector having an SRalpha promoter (pSRalpha). The FGFR3c expression vector was introduced into BaF3 cells by an electroporation method, so as to obtain FGFR3c-expressing BaF3 cells as G418-resistant clones. In the case of FGFR3c/betaKlotho-co-expressing cells, a betaKlotho expression vector was introduced into the FGFR3c-expressing BaF3 cells, so as to obtain the aforementioned cells as Puromycin-resistant clones. In the presence of heparin, humanized FGF21 was added in various types of concentrations to FGFR3c-expressing cells or FGFR3c/betaKlotho-co-expressing cells, and the amount of DNA synthesized was then measured.

[3] = target: T3, humanized FGFR3c/humanized betaKlotho (hβKlotho)-expressing cells (Homo sapiens, UniProt P22607+Q86Z14, A441S/A461E/A470D/A499P/A500N/A559S/A717S/A734V/A765M/C582S/D512S/D516E/D576E/D580N/D722E/D758Q/D785E/DEL405-414/E426D/E447G/E729D/E768D/F566Y/F579Y/F591S/F767L/G446S/G448T/G548D/G773S/G774F/H721N/I440P/I494L/I698V/I726M/INS417HSQMAVHKLAKSI/INS423TV/INS780T/K420R/K464R/K501R/K583H/L398M/L425A/L457Y/L554I/L645I/L752V/M488L/N428S/N434G/N453G/N644H/P401G/P402T/P436L/P502V/P584N/P778R/Q611K/Q775P/R397K/R399K/R416D/R498K/R568Q/S432N/S468P/S578C/S781C/T435V/T450M/T473V/T504K/T581P/T590S/T753A/T757N/V503T/V523I/V642I/V670I/V751I/V754L); test: DNA synthesis in humanized FGFR3c/humanized betaKlotho-expressing BaF3 cells; conditions: humanized FGFR3c and humanized betaKlotho; 10 μg/ml heparin
T3 construct: expressed in transfected cells; host or cells: BaF3 (mouse pro-B) cells
Procedure: as §1

[4] = target: T4, BaF3 cells that had co-expressed FGFR1c and Klotho (Mus musculus, UniProt O35082+P16092); test: DNA synthesis in BaF3 cells co-expressing FGFR1c and Klotho; conditions: presence or absence of heparin
T4 construct: the entire-length cDNA of mouse FGFR1c had been cloned; expressed in transfected cells; host or cells: BaF3 (mouse pro-B) cells
Procedure: Specifically, BaF3 cell that had co-expressed FGFR1c and betaKlotho and BaF3 cells that had co-expressed FGFR1c and Klotho were prepared by the same transformation method and under the same culture conditions as those applied in Example 4. Thereafter, FGF21 and FGF23 were added to both types of transformed cells in the presence or absence of heparin, and the amount of DNA synthesized was then measured.

T1 sequence (P11362 22-822): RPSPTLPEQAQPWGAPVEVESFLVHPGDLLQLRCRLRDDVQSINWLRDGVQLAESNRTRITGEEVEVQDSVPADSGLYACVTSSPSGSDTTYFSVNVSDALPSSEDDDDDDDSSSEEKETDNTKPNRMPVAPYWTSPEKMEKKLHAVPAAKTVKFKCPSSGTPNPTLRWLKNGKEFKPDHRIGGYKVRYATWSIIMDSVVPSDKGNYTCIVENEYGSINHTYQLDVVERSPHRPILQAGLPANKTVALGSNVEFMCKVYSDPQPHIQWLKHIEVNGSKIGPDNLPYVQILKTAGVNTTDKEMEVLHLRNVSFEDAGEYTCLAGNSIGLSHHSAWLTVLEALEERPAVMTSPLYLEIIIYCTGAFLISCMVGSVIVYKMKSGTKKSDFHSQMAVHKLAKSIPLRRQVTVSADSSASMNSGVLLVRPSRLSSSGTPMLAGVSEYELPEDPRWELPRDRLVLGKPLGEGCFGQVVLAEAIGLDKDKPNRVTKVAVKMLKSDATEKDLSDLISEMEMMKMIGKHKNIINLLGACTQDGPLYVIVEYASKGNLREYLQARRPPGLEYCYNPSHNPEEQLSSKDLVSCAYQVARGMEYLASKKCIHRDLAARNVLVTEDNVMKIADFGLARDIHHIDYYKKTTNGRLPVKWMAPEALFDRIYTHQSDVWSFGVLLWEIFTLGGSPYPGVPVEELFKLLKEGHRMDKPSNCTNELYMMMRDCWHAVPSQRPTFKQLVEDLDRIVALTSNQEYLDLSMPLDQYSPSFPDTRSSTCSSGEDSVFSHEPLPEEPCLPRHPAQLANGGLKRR
T1 sequence (Q86Z14 whole entry): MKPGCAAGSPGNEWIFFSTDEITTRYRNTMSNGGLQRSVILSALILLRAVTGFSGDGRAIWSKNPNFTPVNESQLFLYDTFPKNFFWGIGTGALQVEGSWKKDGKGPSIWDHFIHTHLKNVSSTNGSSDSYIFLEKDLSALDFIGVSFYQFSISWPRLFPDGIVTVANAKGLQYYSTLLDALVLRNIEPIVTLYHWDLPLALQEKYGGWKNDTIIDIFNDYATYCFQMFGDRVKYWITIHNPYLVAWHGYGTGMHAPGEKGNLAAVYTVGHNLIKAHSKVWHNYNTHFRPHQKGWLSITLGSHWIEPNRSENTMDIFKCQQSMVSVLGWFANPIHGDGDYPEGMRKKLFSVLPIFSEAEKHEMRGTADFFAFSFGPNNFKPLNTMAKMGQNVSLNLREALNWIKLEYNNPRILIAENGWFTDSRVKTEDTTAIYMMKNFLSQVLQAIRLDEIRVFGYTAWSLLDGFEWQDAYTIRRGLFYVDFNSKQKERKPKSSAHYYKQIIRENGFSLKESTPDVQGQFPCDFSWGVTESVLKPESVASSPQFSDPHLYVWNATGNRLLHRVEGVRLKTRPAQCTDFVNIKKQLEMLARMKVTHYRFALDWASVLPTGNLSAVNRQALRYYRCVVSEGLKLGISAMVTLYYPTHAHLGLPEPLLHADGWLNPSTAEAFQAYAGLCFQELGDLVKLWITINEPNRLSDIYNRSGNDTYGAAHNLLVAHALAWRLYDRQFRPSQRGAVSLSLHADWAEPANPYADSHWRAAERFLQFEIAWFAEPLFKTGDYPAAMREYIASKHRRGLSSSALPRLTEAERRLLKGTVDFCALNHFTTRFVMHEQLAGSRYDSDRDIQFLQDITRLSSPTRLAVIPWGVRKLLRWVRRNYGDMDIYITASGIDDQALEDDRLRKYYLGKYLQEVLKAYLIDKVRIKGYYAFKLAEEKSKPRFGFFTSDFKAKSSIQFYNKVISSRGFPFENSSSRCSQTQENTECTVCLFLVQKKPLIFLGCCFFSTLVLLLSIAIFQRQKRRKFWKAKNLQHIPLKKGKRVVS
T4 sequence (P16092 22-822): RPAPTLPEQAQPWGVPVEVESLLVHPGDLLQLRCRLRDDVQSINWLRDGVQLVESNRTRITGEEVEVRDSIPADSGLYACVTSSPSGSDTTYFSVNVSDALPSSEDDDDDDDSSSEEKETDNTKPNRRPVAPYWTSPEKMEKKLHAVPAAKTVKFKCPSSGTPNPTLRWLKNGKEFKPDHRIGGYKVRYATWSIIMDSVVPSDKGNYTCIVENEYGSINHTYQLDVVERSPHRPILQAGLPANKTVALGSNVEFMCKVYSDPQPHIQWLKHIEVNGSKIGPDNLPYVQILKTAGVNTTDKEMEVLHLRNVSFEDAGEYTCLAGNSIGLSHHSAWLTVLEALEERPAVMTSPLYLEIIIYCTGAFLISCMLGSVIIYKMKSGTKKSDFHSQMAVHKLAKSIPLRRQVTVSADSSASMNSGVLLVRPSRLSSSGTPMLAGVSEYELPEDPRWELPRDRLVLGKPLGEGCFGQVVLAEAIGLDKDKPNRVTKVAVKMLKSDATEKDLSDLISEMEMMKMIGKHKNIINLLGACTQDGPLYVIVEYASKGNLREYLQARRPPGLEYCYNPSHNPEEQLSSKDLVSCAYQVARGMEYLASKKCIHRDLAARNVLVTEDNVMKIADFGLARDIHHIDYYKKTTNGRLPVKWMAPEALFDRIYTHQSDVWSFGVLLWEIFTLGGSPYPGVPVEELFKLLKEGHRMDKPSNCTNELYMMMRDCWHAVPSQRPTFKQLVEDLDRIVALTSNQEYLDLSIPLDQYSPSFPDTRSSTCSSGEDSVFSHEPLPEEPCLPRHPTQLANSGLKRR
T4 sequence (O35082 35-1014): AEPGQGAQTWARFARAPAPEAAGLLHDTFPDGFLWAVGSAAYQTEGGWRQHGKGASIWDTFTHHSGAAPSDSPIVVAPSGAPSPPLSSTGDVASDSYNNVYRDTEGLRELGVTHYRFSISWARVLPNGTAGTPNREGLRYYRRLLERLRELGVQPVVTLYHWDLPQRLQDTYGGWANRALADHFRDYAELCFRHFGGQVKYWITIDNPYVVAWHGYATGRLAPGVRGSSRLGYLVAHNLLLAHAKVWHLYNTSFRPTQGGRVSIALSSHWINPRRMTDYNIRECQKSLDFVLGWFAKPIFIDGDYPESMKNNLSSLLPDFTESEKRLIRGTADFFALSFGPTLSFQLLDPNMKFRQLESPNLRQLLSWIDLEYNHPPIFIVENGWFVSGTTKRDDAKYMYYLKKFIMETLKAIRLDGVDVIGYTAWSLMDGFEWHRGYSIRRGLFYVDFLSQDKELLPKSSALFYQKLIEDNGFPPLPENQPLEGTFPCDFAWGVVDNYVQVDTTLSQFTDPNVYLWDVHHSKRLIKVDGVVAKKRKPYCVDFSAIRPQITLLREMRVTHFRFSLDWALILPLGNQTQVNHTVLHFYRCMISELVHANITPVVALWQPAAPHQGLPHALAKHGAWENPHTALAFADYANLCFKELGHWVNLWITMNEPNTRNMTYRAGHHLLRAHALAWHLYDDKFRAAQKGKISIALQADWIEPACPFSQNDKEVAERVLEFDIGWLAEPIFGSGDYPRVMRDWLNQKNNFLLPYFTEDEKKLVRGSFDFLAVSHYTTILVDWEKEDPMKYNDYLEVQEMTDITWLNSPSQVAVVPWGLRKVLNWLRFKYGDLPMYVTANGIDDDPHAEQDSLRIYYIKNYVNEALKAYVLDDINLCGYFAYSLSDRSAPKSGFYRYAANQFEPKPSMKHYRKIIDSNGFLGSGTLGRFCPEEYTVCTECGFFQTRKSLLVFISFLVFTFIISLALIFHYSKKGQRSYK
T2 sequence (P22607 other isoform, or with tags, fused parts or gaps with the stated changes): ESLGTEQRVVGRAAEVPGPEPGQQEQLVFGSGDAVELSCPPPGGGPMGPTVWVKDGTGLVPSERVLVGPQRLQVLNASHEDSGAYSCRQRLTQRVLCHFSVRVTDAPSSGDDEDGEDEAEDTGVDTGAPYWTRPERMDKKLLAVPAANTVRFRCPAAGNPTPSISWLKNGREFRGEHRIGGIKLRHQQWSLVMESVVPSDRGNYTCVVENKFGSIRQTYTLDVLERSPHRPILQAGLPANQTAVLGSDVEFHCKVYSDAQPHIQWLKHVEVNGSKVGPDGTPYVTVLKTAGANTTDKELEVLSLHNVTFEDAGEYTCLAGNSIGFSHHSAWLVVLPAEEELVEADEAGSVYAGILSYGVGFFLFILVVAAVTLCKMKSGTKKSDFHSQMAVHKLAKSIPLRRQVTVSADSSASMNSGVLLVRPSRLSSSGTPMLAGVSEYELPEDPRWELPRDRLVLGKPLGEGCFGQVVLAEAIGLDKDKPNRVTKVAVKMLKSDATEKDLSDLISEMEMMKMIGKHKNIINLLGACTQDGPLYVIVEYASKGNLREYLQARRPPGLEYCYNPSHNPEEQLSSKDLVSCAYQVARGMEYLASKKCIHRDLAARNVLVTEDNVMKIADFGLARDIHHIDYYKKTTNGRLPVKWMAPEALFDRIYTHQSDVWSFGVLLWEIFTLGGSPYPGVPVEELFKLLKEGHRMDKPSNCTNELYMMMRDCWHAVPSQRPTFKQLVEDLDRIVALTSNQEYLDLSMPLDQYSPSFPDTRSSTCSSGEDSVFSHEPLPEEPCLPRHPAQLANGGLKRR
T3 sequence (P22607 other isoform, or with tags, fused parts or gaps with the stated changes): as above
T3 sequence (Q86Z14 whole entry, stated change not applied): as the sequence (Q86Z14 whole entry) above

amount of DNA synthesized (thymidine incorporation) [1]	amount of DNA synthesized (thymidine incorporation) [2]	amount of DNA synthesized (thymidine incorporation) [3]	amount of DNA synthesized [4]	Molecule
promoted the DNA synthesis	promoted the DNA synthesis	promoted the DNA synthesis		FGF1: conventional FGF used as a control
			did not react with FGFR1c	FGF21: fibroblast growth factor 21; mouse-derived protein used in Examples 1-7 and 10-13 (protein) AYPIPDSSPLLQFGGQVRQRYLYTDDDQDTEAHLEIREDGTVVGAAHRSPESLLELKALKPGVIQILGVKASRFLCQQPDGALYGSPHFDPEACSFRELLLEDGYNVYQSEAHGLPLRLPQKDSPNQDATSWGPVRFLPMPGLLHEPQDQAGFLPPEPPDVGSSDPLSMVEPLQGRSPSYAS
